{"source": "patent EP2469278A1", "about": "“Reagentless fluorescent biosensors from nanofitins, rational design methods to create reagentless fluorescent biosensors and methods of their use” (Institut Pasteur, priority 2010, dated 2012)", "binders": {"B1": {"name": "H4S(wt) (designed binder)", "chain": "MRGSHHHHHHGSVKVKFFWNGEEKEVDTSKIVWVKRAGKSVLFIYDDNGKNGYGDVTEKDAPKELLDMLARAEREKKLN", "notes": "Nanofitin derived from Sac7d (Sulfolobus acidocaldarius), H4 with Cys29 changed into Ser29; His-tagged; also called H4S protein; parental Nanofitin H4S(wt)"}, "B2": {"name": "H4S(K24ANBD) (designed binder)", "chain": "MRGSHHHHHHGSVKVKFFWNGEEKEVDTSKIVWVCRAGKSVLFIYDDNGKNGYGDVTEKDAPKELLDMLARAEREKKLN", "modifications": "Cys at position 24 (H4S numbering) coupled to IANBD ester (ANBD)", "notes": "also called H4S(Lys24ANBD); Lys24"}, "B3": {"name": "H4S conjugate, IANBD fluorophore coupled at position Trp22 (designed binder)", "chain": "MRGSHHHHHHGSVKVKFFWNGEEKEVDTSKIVCVKRAGKSVLFIYDDNGKNGYGDVTEKDAPKELLDMLARAEREKKLN", "modifications": "Cys at position 22 (H4S numbering) coupled to IANBD ester (ANBD)"}}, "key": {"hen egg-white lysozyme [1]": {"biological_target": "T1, hen egg-white lysozyme (hen, UniProt P00698 19-147)", "T1 construct": "also called HEL", "experiment": "Biacore kinetics, HEL immobilised; Kd' = koff/kon"}, "hen egg-white lysozyme [2]": {"biological_target": "T1, hen egg-white lysozyme", "experiment": "Biacore, HEL immobilised; Kd'' dissociation constant at steady state"}, "hen egg-white lysozyme [3]": {"biological_target": "T1, hen egg-white lysozyme", "experiment": "competition Biacore in solution, buffer D; free H4S measured on immobilised HEL"}, "hen egg-white lysozyme [4]": {"biological_target": "T1, hen egg-white lysozyme", "experiment": "Biacore kinetics, HEL immobilised on CM5 chip, buffer E (reducing), 25 °C, 1:1 Langmuir model"}, "bovine serum albumin": {"biological_target": "T2, bovine serum albumin (bovine, UniProt P02769 25-607)", "T2 construct": "Heterologous antigen used as specificity control; also called BSA", "experiment": "fluorescence titration with BSA, 0.3 µM conjugate, buffer C"}, "hen egg-white lysozyme [5]": {"biological_target": "T1, hen egg-white lysozyme", "experiment": "fluorescence titration in solution, 0.3 µM conjugate, buffer C, 25 °C"}, "hen egg-white lysozyme [6]": {"biological_target": "T1, hen egg-white lysozyme", "experiment": "comparison of Kd in solution (fluorescence titration against competition Biacore)"}, "hen egg-white lysozyme [7]": {"biological_target": "T1, hen egg-white lysozyme", "experiment": "from Kd in solution: fluorescence titration of conjugate against competition Biacore of H4S(wt)"}, "hen egg-white lysozyme [8]": {"biological_target": "T1, hen egg-white lysozyme", "experiment": "fluorescence titration in solution, 0.3 µM conjugate, buffer C, 25 °C (fit R = 0.72)"}}, "note": "Where “and” joins values, the source holds several entries; their conditions need not be identical. Identical values can stand only once.", "data": [{"binder": "B1", "values": [{"measurement": "Kd", "setting": "hen egg-white lysozyme [1]", "value": 0.031, "unit": "µM"}, {"measurement": "Kd", "setting": "hen egg-white lysozyme [2]", "value": 0.018, "unit": "µM"}, {"measurement": "Kd", "setting": "hen egg-white lysozyme [3]", "value": 0.0403, "unit": "µM"}, {"measurement": "koff", "setting": "hen egg-white lysozyme [4]", "value": 0.015, "unit": "s⁻¹"}, {"measurement": "kon", "setting": "hen egg-white lysozyme [4]", "value": 490000, "unit": "M⁻¹ s⁻¹"}]}, {"binder": "B2", "values": [{"measurement": "Kd", "setting": "bovine serum albumin", "value": 1, "unit": "µM"}, {"measurement": "Kd", "setting": "hen egg-white lysozyme [5]", "value": 0.098, "unit": "µM"}, {"measurement": "ΔF∞/F0 (maximal relative variation of fluorescence on HEL binding)", "setting": "hen egg-white lysozyme [5]", "value": 8.8}, {"measurement": "fold lower affinity than the parental protein H4S(wt)", "setting": "hen egg-white lysozyme [6]", "value": "~2", "unit": "fold"}, {"measurement": "ΔΔG (conjugate against H4S(wt))", "setting": "hen egg-white lysozyme [7]", "value": "≥ 2.09 kJ/mol and ≤ 5.02 kJ/mol"}]}, {"binder": "B3", "values": [{"measurement": "Kd", "setting": "hen egg-white lysozyme [8]", "value": 1.23, "unit": "µM"}, {"measurement": "ΔΔG (conjugate against H4S(wt))", "setting": "hen egg-white lysozyme [7]", "value": "≥ 6.28", "unit": "kJ/mol"}]}]}
